Laboratory results as given in patent publication US7700353B2, “Compositions and methods for inducing apoptosis in tumor cells” (E-P Therapeutics, Inc., priority 1998, dated 2010).

Tests used:
[1] = tested on: 293GP cells; experiment: Cell attachment assay; format: cell-based, human; details: 0.8 μM, serum-free medium, four days, after shaking
Procedure: To confirm whether treatment of transformed cells with the Ea-4 peptide could result in increased attachment of the cells to the culture dish, 293GP cells were cultured in a serum-free basal medium supplemented with Ea-4-peptide (0.8 µM) or 10% FBS, respectively, in 6-well culture chambers. After four days, the culture medium was removed, and cells were rinsed twice with PBS containing 0.02% EDTA, fresh PBS was added, and the culture plates shaken 20 times manually.

[2] = tested on: MDA-MB-231 cells; experiment: Soft agar colony formation of Ea-4 cDNA transfectants; format: cell-based, human; details: cells transfected with Ea-4-peptide cDNA (clones E9 and E15)
Source text: Two gene constructs, CMV-IGF-1-sp-Ea-4-cDNA-IRES-EGFP and CMV-IRES-EGFP were used in the transfection studies. The first construct (FIG. 9A) contained Ea-4 peptide cDNA (with a signal peptide sequence derived from hlGF-I), a ribosome re-entry site (IRES) and an enhanced green fluorescence protein (EGFP) marker gene. […] The expression of both gene constructs was driven by a promoter from CMV. Vectors containing the recognized control sequences and marker gene are available from commercial sources (CLONTECH, Palo Alto, Calif.).
Transfection of the cells was accomplished as follows. MDA-MB-231 cells were cultured in F12/DMEM supplemented with 10% FBS and 10 ng/ml of insulin to 90% confluence. About 5×10^6 cells were harvested and resuspended in 1 mL of serum-free F12/DMEM containing 20 µg of un-linearized constructs. The cells were electroporated in a BRL Cell-Porator using the following settings: low .OMEGA., 1180 micro Faraday (µF) capacitance, and two pulses at 200 volts. Following electroporation, cells were resuspended in 12 mL of fresh growth medium and seeded into a 6-well plate to recover. Permanent transfectants expressing green fluorescence protein (GFP) were enriched in a medium containing neomycin (G418) at 1 mg/mL for ten days and followed with 500 µg/mL for continuous maintenance. […]

[3] = tested on: MCF-7, HT-29, HepG2, ZR-75-1, SK-N-F1, or HC cells; experiment: Morphological change assay in tumor cell lines; format: cell-based, human and fish
Procedure: Approximately 1-2×10^5 of MCF-7, ZR-75-1, HT-29, HepG2, 293GP, HC or SK-N-F1 cells re-suspended in their respective basal medium without fetal bovine serum (FBS) were plated in a 6-well culture chamber. Prior to plating cells, an acid-washed coverslip was placed in each well of the culture chamber. Recombinant rainbow trout E-peptides (rtEa-2, rtEa-3 or rtEa-4 peptide at 0.8 µM), human IGF-I (hIGF-1, 2.5 nM) or the same amount of control protein was added to each well and the cell cultures were incubated at 37° C. under a humidified atmosphere of 5% CO2. The control protein was prepared from E. coli cells carrying the expression plasmid but without the E-peptide gene according to the purification method described by Tian et al. (1999). Coverslips were removed from the culture chamber 24 hours after initiation of the treatment and observed under an Olympic inverted microscope equipped with differential interference phase contrast objective lenses or phase contrast objective lens (final magnification, 200×). The morphological change assay was performed at least 10 times with different batches of Ea-4 peptide preparations.
Oncogenic transformed or established cancer cells derived from human and fish (MCF-7, HT-29, HepG2, ZR-75-1, SK-N-F1, or HC cells) were plated in their respective serum-free basal medium supplemented with 0.8 µM of the trout recombinant Ea-4-peptide, with the control protein, or with 2.5 nM of the recombinant hlGF-I and the cultures were examined 24 hours later under an inverted microscope equipped with differential interference phase contrast objectives. […] The rtEa-4 peptide treated cells developed several pseudopodia-like structures to establish contact with neighboring cells similar to that seen in untransformed or non-malignant cells.
Because each of these tumor cell lines obtained from ATCC contains a mixed population of tumorous and nontumorous cells, only between 25-40% of the cells from each cell line responded to induction by rtEa-4-peptide. […]

[4] = tested on: ovarian cancer cells (SKOV-3); experiment: Apoptosis observed under microscope; format: cell-based, human; details: 0.1-3.4 μM, 4 hours
Procedure: FIG. 22 depicts apoptosis in ovarian cancer cells (SKOV) induced by various amounts of rtEa4-peptide. SKOV cells were treated with various amounts (0.1-3.4 μM) for 4 hours and observed under a microscope. Arrows indicate apoptotic cells.
Killing of cancer cells by E-peptide could be the consequence of apoptosis or necrosis. To differentiate these two possibilities, MDA-MB-231 (C) cells were grown in culture in the presence of about 1.5 μM of trout Ea4-peptide. After about two hours of incubation the cells were observed under a microscope. […] FIG. 22 presents the results of the effect of trout Ea4-peptide on induction of apoptosis in ovarian cancer cells (SKOV-3).

[5] = tested on: activated caspase-3 in MDA-MB-231(C); experiment: Activated caspase-3 staining; format: cell-based, human; details: about 1.5 μM, about 48 hours
Procedure: FIG. 24 depicts the effect of rtEa4-peptide on induction of apoptosis in MDA-MB-231 cells treated with rtEa4-peptide. (A) Detection of apoptosis by TUNEL assay; (B) Detection of apoptosis y detecting the induction of the activated caspase-3 activity. MDA-MB-231 cells were treated with about 1.5 μM of rtEa4-peptide for about 48 hours, fixed and subjected to TUNEL assay or stained with anti-human activated caspase-3 serum conjugated with rhodamine. Hydrogen peroxide (H2O2), 0.5 mM, was used to induce apoptosis as a positive control.
(§1) Induction of caspase-3 has been widely used as an indicator of cells undergoing apoptosis.

[6] = tested on: Caspase-3 mRNA in SKOV-3(A); experiment: Induction of caspase-3 mRNA; format: cell-based, human
Source text: as §1

[7] = tested on: Caspase-3 mRNA in MDA-MB-231; experiment: Induction of caspase-3 mRNA; format: cell-based, human
Source text: as §1

B1: rtEa-4: recombinant Ea-4 peptide of rainbow trout pro-IGF-I, 74 amino acid residues (SEQ ID NO: 2) (protein)
chain: RSVRAQRHTDMPRTPKVSTAVQNVDRGTERRTAQHPDKTKTKKKPLSGHSHPSCKEVHQKNSSRGNTGGRNYRM
modifications: Oncorhynchus mykiss
Q: What does the source list for B1?
A: attachment of cells to the culture chamber [1]: remained attached to the culture chamber; colony formation activity [2]: abolished; morphological change ([3]; 0.8 μM, 24 hours, serum-free basal medium): flattened out and attached tightly to the culture dish; cells from each cell line responding to induction ([3]; mixed population cell lines from ATCC): 25-40%; apoptosis (microscopy) [4]: dose-dependent induction of apoptosis; level of activated caspase-3 activity [5]: induced; Caspase-3 mRNA ([6]; 0.04 μM): 3.0 × 10^5 ± # molecules / μg total RNA; Caspase-3 mRNA ([6]; 0.20 μM): 2.5 × 10^5 ± # molecules / μg total RNA; Caspase-3 mRNA ([6]; 1.00 μM): 3.7 × 10^5 ± # molecules / μg total RNA; Caspase-3 mRNA ([6]; 5.00 μM): 2.2 × 10^5 ± # molecules / μg total RNA; Caspase-3 mRNA ([7]; 0.04 μM): 3.9 × 10^5 ± 3.8 × 10^4 molecules / μg total RNA; Caspase-3 mRNA ([7]; 0.20 μM): 3.4 × 10^5 ± 3.1 × 10^4 molecules / μg total RNA; Caspase-3 mRNA ([7]; 1.00 μM): 4.6 × 10^5 ± 9.5 × 10^4 molecules / μg total RNA; Caspase-3 mRNA ([7]; 5.00 μM): 5.8 × 10^5 ± 1.3 × 10^4 molecules / μg total RNA
